The source of these data is publication PMC11240982 (2024).

B2: SHIV_(1157ipd3N4) V3 peptide (305KSISIGPGQAI317) (peptide)
peptide: KSISIGPGQAI

Common to all, as to assay: BLI
For assay [1], the target named is B2.
In assay [2] the target is J038.
The target in assay [3] is 447-52D.

One may read the Kd as the constant that tells how readily two partners part at equilibrium.

B1: JT18 (antibody, V domains shown)
VH: EVQLVQSGAEVKRPGESLRISCKTSGYDFTDYWINWVRQMPGKGLEWVGMVYPSDSETAYSPSFRGRVTISADTSISTSYLQWTSLEASDTATYYCARPVSGTFALDVWGRGVLVAVSS
VL: QSVLTQPPSMSGAPGQRVTMSCTGGNSNIGANLYVQWYQQVPGTAPRLLIYEDNQRPSGVSDRFSGSRSGSSASLTITGLQSEDEADYYCQSYDNSLSTVLFGGGTRLTVL
For the molecule B1, in assay [1], the Kd was determined as 55.3 nM.

For the molecule B2, the Kd stood at 1650 nM in assay [2] and 55.6 nM in assay [3].
